The target of data set [1] is PhoB (Escherichia coli) (UniProt P0AFJ5). The following applies: cited from earlier work.
For data set [2] the target is unchanged. The following applies: cited from earlier work. The source holds these as a separate data set.
Data set [3] concerns the molecule itself. Nature of the data set: AUC.
Data set [4] deals with the molecule itself. The data set is described as follows: AUC. The source holds these as a separate data set.
For a further data set, the target named is T1, OmpR (Escherichia coli, UniProt P0AA16 1-239).
T1 sequence: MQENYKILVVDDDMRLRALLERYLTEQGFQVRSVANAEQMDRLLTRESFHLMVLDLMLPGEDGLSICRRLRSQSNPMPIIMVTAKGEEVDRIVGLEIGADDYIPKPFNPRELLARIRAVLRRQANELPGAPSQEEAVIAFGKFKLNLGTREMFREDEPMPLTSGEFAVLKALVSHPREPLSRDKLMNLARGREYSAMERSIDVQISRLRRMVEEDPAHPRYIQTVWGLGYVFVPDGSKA
Nature of the data set: ITC. In general terms: In ITC the heat of successive injections is recorded.

The text below walks through data of PMC3646996 (Journal of molecular biology, 2013).

Where two headings read alike, the source gives them in different places.

Chain of PhoB (Escherichia coli) (P0AFJ5 whole entry): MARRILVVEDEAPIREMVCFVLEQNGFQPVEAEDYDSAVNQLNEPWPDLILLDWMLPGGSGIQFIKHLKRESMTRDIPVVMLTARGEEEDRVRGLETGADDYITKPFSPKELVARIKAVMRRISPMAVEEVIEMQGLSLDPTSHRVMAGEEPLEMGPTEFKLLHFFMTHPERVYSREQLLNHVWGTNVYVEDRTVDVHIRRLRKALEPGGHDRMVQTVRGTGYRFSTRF

A word on the Kd: it is a measure of binding affinity in units of concentration. Consider PhoB (from UniProt P0AFJ5), for which the Kd with PhoB (Escherichia coli) [1] was 380 µM; in the data set with PhoB (Escherichia coli) [2] it was 5.1 µM.

B1: OmpR (unphosphorylated, untreated) (natural protein, Escherichia coli, UniProt P0AA16 1-239, looked up)
chain: MQENYKILVVDDDMRLRALLERYLTEQGFQVRSVANAEQMDRLLTRESFHLMVLDLMLPGEDGLSICRRLRSQSNPMPIIMVTAKGEEVDRIVGLEIGADDYIPKPFNPRELLARIRAVLRRQANELPGAPSQEEAVIAFGKFKLNLGTREMFREDEPMPLTSGEFAVLKALVSHPREPLSRDKLMNLARGREYSAMERSIDVQISRLRRMVEEDPAHPRYIQTVWGLGYVFVPDGSKA
As usually defined, the stoichiometry N is a count of units in the complex or per binding partner. Consider B1, for which, in “AUC [3]”, the Kd was determined as 1100 µM and the “stoichiometry N” value came out at 2.

B2: BeF3−-treated OmpR (natural protein, Escherichia coli, UniProt P0AA16 1-239, looked up)
chain: MQENYKILVVDDDMRLRALLERYLTEQGFQVRSVANAEQMDRLLTRESFHLMVLDLMLPGEDGLSICRRLRSQSNPMPIIMVTAKGEEVDRIVGLEIGADDYIPKPFNPRELLARIRAVLRRQANELPGAPSQEEAVIAFGKFKLNLGTREMFREDEPMPLTSGEFAVLKALVSHPREPLSRDKLMNLARGREYSAMERSIDVQISRLRRMVEEDPAHPRYIQTVWGLGYVFVPDGSKA
modifications: BeF3− (noncovalent small molecule phosphoryl analog); residue not given
For the molecule B2, in “AUC [4]”, the Kd amounted to 7 µM and the “stoichiometry N” value amounted to 2.

B3: F1 (dsDNA)
DNA 1: GCTTTACTTTTGGTTACATATTTCG
DNA 2: CGAAATATGTAACCAAAAGTAAAGC
B3: the dissociation constant Kd with OmpR was 2 µM.
